B1: SC16.56 PBD3: anti-DLL3 ADC; comprises the same humanized antibody as found in Rova-T but employs a different PBD cytotoxin (conjugate, chains of the INN, looked up)
VH: QVQLVQSGAEVKKPGASVKVSCKASGYTFTNYGMNWVRQAPGQGLEWMGWINTYTGEPTYADDFKGRVTMTTDTSTSTAYMELRSLRSDDTAVYYCARIGDSSPSDYWGQGTLVTVSS
VL: EIVMTQSPATLSVSPGERATLSCKASQSVSNDVVWYQQKPGQAPRLLIYYASNRYTGIPARFSGSGSGTEFTLTISSLQSEDFAVYYCQQDYTSPWTFGQGTKLEIK
modifications: PBD3 cytotoxin conjugate

How the values were obtained:
[1] = system: recurrent/refractory small cell lung cancer (SCLC); settings: single agent; cited from earlier work
[2] = Adverse health effects in treated tumor-bearing mice; format: in vivo, female NOD/SCID mice; settings: tumor-bearing NOD/SCID mice treated intraperitoneally
Procedure: (§1) A GBM PDX tumor line was grown subcutaneously in the flanks of female NOD/SCID mice using art-recognized techniques. Tumor volumes and mouse weights were monitored once or twice per week. When tumor volumes reached 150-250 mm^3, mice were randomly assigned to treatment groups and injected intraperitoneally with SC16.56 PDB3 or an isotype control human IgG1.PDB3. SC16.56 PDB3 comprises the same humanized antibody as found in Rova-t but employs a different PBD cytotoxin. Following treatment, tumor volumes and mouse weights were monitored until tumors exceeded 1000 mm^3 or mice became sick.

[3] = system: GB8 tumors (GBM PDX tumor line); assay: Glioblastoma PDX tumor growth suppression in immunodeficient mice; format: in vivo, female NOD/SCID mice; settings: single dose 0.2 mg/kg, intraperitoneal, subcutaneous GB8 tumors, 20 days post-treatment (FIG. 3)
Procedure: as §1

Row | Molecule | clinical activity [1] | adverse health effects [2] | tumor growth (tumor volume) [3]
1 | rovalpituzumab tesirine [Rova-T] | clinically demonstrated single agent activity |  | 
2 | B1 |  | did not exhibit any adverse health effects beyond those typically seen in immunodeficient, tumor-bearing NOD/SCID mice | tumor suppression
